Laboratory results as given in US8030025B2.
Several values for one entry are separate records, joined by “and”; a condition that tells them apart may be missing. Equal entries are not always repeated. Blank lines part the entries; values can stand above or below the substance they belong to.

Columns and labels:
[1] = biological target: biotinylated human angiopoietin 2 (human) (UniProt O15123); assay: HTRF neutralization; biotin-hAng2 vs huTie-2-Fc-APC
Rabbit Ang2 (rabbit) = Rabbit Ang2 (rabbit) (UniProt G1T9B3); assay: neutralization ELISA; coated angiopoietin vs Tie2-Fc
[2] = biological target: Cyno Ang2 (cynomolgus monkey); assay: as above
Murine Ang1 (mouse) [3] = biological target: Murine Ang1 (mouse) (UniProt O08538); assay: as above
[4] = biological target: Cyno Ang1 (cynomolgus monkey); assay: as above
Rabbit Ang1 (rabbit) [5] = biological target: Rabbit Ang1 (rabbit) (UniProt G1SK98); assay: as above
Murine Ang2 (mouse) [6] = biological target: Murine Ang2 (mouse) (UniProt O35608); assay: as above
Human Ang1 (human) [7] = biological target: Human Ang1 (human) (UniProt Q15389); assay: as above
Human Ang2 (human) [8] = biological target: Human Ang2 (human) (UniProt O15123); assay: as above
[9] = biological target: biotinylated human angiopoietin 2 (human) (UniProt O15123); assay: angiopoietin:Tie2 neutralization HTRF; biotin-hAng2 vs Tie2-APC
[10] = biological target: biotinylated human angiopoietin 1 (human) (UniProt Q15389); assay: angiopoietin:Tie2 neutralization HTRF; biotin-hAng1 vs Tie2-APC
[11] = biological target: biotinylated human angiopoietin 1 (human) (UniProt Q15389); assay: HTRF neutralization; biotin-hAng1 vs huTie-2-Fc-APC
[12] = biological target: Cyno Ang2 (cynomolgus monkey); assay: angiopoietin:Tie2 neutralization ELISA; coated angiopoietin vs hTie2-Fc
Murine Ang1 (mouse) [13] = biological target: Murine Ang1 (mouse) (UniProt O08538); assay: as above
[14] = biological target: Cyno Ang1 (cynomolgus monkey); assay: as above
Rabbit Ang1 (rabbit) [15] = biological target: Rabbit Ang1 (rabbit) (UniProt G1SK98); assay: as above
Murine Ang2 (mouse) [16] = biological target: Murine Ang2 (mouse) (UniProt O35608); assay: as above
Human Ang1 (human) [17] = biological target: Human Ang1 (human) (UniProt Q15389); assay: as above
Human Ang2 (human) [18] = biological target: Human Ang2 (human) (UniProt O15123); assay: as above
[19] = biological target: Tie2 in mouse lung endothelium (mouse) (UniProt Q02858)

IC50 [1]: 0.03 nM
IC90 [1]: 0.13 nM and 0.15 nM
IC50 (Rabbit Ang2 (rabbit)): 0.1 nM
IC50 [2]: 0.17 nM
IC50 (Murine Ang1 (mouse) [3]): 2.7 nM
IC50 [4]: 2.9 nM
IC50 (Rabbit Ang1 (rabbit) [5]): 4.3 nM
IC50 (Murine Ang2 (mouse) [6]): 0.1 nM
IC50 (Human Ang1 (human) [7]): 1.2 nM
IC50 (Human Ang2 (human) [8]): 0.12 nM
IC50 [9]: 0.029 nM
IC50 [10]: 0.0062 µM
IC50 [11]: 2.6 nM and 3.9 nM
IC90 [11]: 106 nM and 278 nM
Substance: AMG 386 (Fc fusion)

IC50 [12]: > 10 µM
IC50 (Murine Ang1 (mouse) [13]): > 10 µM
IC50 [14]: > 10 µM
IC50 (Rabbit Ang1 (rabbit) [15]): > 10 µM
IC50 (Murine Ang2 (mouse) [16]): > 10 µM
IC50 (Human Ang1 (human) [17]): > 10 µM
IC50 (Human Ang2 (human) [18]): > 10 µM
IC50 [9]: > 10000 nM
IC50 [10]: > 10 µM
Substance: Fc

IC50 [9]: 0.064 nM
IC50 [10]: > 10 µM
Substance: L1-7(N) (Fc fusion)

Tie2 phosphorylation in mouse lung endothelium [19]: 5 fold
Substance: recombinant Ang1 (R&D Systems Inc.) (ligand)
